Laboratory results as given in the supplement of paper PMC7125110.
± gives the standard error. This sample holds only a part of the variants without activity.

B1: glmS ribozyme (parent)
chain: AUAAAAGCGCCAGAACUACAGAAAUGUAGUUGACGAGGAGGAGGUUUAUCGAAUUUUCGGCGGAUGCCUCCAAA

Key:
Settings in all cases: with glucosamine-6-phosphate
glucosamine-6-phosphate [1] = variants of: B1; experiment: self-cleavage kobs at 640 uM GlcN6P; higher = faster cleavage; RNA array
Summary of the method: (§1)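 Ribozyme variants carrying barcodes were transcribed in situ on sequenced MiSeq chips by E. coli RNA polymerase and tracked at 37 °C with a hybridised Cy3 probe. They were exposed to 40 μM to 10 mM glucosamine-6-phosphate in HEPES/KCl/Mg(OAc)2 buffer. kobs came from exponential decay fits of normalised per-tile medians, and kcat and KM from weighted Michaelis–Menten fits.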

glucosamine-6-phosphate [2] = variants of: B1; experiment: self-cleavage kobs at 2500 uM GlcN6P; higher = faster cleavage; RNA array
Summary of the method: as §1

glucosamine-6-phosphate [3] = variants of: B1; experiment: self-cleavage kobs at 10000 uM GlcN6P; higher = faster cleavage; RNA array
Summary of the method: as §1

Row | Variant | self-cleavage kobs at 640 uM GlcN6P (glucosamine-6-phosphate [1]) [s⁻¹] | self-cleavage kobs at 2500 uM GlcN6P (glucosamine-6-phosphate [2]) [s⁻¹] | self-cleavage kobs at 10000 uM GlcN6P (glucosamine-6-phosphate [3]) [s⁻¹]
1 | U31C G51C C71A | < 1e-05 | – | –
2 | A14G A36C G40C G51C | < 1e-05 | – | –
3 | A14U A15C A33U U49C C50G U69A | 0.0012 ± 0.00039 | 0.000218 ± 9.1e-05 | –
4 | G29A A33U G44U | < 1e-05 | – | –
5 | U31C G37A A53G | 5.04e-05 ± 8.3e-06 | 0.000126 ± 2e-05 | –
6 | A15G U30A C67A C70U | 0.000654 ± 0.00016 | 9.99e-05 ± 4.6e-05 | 0.00115 ± 0.00026
7 | A15U G35A C68U | < 1e-05 | < 1e-05 | –
8 | A14G G38U G66A | < 1e-05 | – | –
9 | U30G G37U U55C C58G | < 1e-05 | – | –
10 | U30C G32C C58A | 3.93e-05 ± 1.5e-05 | – | –
11 | U30G U31A U65A | 0.000791 ± 0.00013 | 0.000896 ± 0.00022 | –
12 | C16A G51U U69G | 9.84e-05 ± 4.1e-05 | 0.000199 ± 9.6e-05 | –
13 | G29U G37A U49A C58G G62U | < 1e-05 | – | –
14 | A14U U31C A39C | 7.42e-05 ± 1.4e-05 | 0.000324 ± 6.8e-05 | 0.000464 ± 6e-05
15 | G29U A33U G44U A52U | < 1e-05 | – | –
16 | G32C U47G G59C | < 1e-05 | < 1e-05 | –
17 | G29C A39G U46A U65G | 0.000174 ± 6.2e-05 | 0.000622 ± 0.00019 | –
18 | G29U A42G U45C | 6.45e-05 ± 2.4e-05 | 0.000107 ± 3.3e-05 | –
19 | A15U A36C U56G U69A | 7.26e-05 ± 3.4e-05 | – | –
20 | G29A A48U G62C | < 1e-05 | – | –
21 | U30C G38U A42U | < 1e-05 | – | < 1e-05
22 | A15U G32A U46G C50G | 8.2e-05 ± 2.3e-05 | – | –

Row | Variant | self-cleavage kobs at 640 uM GlcN6P (glucosamine-6-phosphate [1]) [s⁻¹] | self-cleavage kobs at 2500 uM GlcN6P (glucosamine-6-phosphate [2]) [s⁻¹] | self-cleavage kobs at 10000 uM GlcN6P (glucosamine-6-phosphate [3]) [s⁻¹]
23 | A15U U46G A53U C67U | 6.64e-05 ± 1.4e-05 | – | –
24 | A14U G43C | < 1e-05 | < 1e-05 | < 1e-05
25 | A15C U31C A33G G38A | < 1e-05 | – | < 1e-05
26 | G32A U49C C50G | < 1e-05 | – | –
27 | G29A G43C A52C C61U | < 1e-05 | < 1e-05 | –
28 | A14U G29C G51U | < 1e-05 | – | –
29 | A18C U56C U65G | 5.82e-05 ± 2.6e-05 | 0.000131 ± 6.1e-05 | –
30 | A14G U54C C68G | 0.000112 ± 3e-05 | 7.7e-05 ± 1.8e-05 | –
31 | U31A U47C G51A G66A | < 1e-05 | < 1e-05 | –
32 | A14G G29U U30G A33C C61G G66U | < 1e-05 | < 1e-05 | –
33 | U31C A53U C67U | 0.000239 ± 6.6e-05 | 0.00045 ± 9.3e-05 | –
34 | A14U C67U C68G | 0.000113 ± 3.4e-05 | – | –
35 | C16A A42C C71U | < 1e-05 | < 1e-05 | –
36 | G29U A33U G43C G60C G62U C71G | < 1e-05 | < 1e-05 | –
37 | A14U C50G G62A | 0.000193 ± 8.2e-05 | – | –
38 | A14U G29C A48G U65A | < 1e-05 | – | –
39 | A23C U69A | 0.000292 ± 0.0001 | 0.000135 ± 2.9e-05 | 9.83e-05 ± 4.3e-05
40 | A15G G66U C71U | 0.000559 ± 0.00011 | 0.00142 ± 0.00041 | –
41 | A15G U31A U47G | 0.000471 ± 0.00011 | 0.00142 ± 0.0005 | –
42 | G32C G35A A64C C70A | < 1e-05 | < 1e-05 | –
43 | A14G C16U U45C | 0.000986 ± 0.00024 | 0.00371 ± 0.00065 | –
44 | C16G G35C U55A U56A | < 1e-05 | < 1e-05 | –

Row | Variant | self-cleavage kobs at 640 uM GlcN6P (glucosamine-6-phosphate [1]) [s⁻¹] | self-cleavage kobs at 2500 uM GlcN6P (glucosamine-6-phosphate [2]) [s⁻¹] | self-cleavage kobs at 10000 uM GlcN6P (glucosamine-6-phosphate [3]) [s⁻¹]
45 | G29U U45G U65C | < 1e-05 | < 1e-05 | –
46 | U31G G38U A53G C68A C71A | 0.000204 ± 7.6e-05 | – | –
47 | U30C G37U G44C C58U C67U | < 1e-05 | – | –
48 | U31C G66A C68A U69G | 7.97e-05 ± 4e-05 | 4.91e-05 ± 1.6e-05 | –
49 | C16U G60U C68A | < 1e-05 | – | –
50 | G32U A33G G38A | < 1e-05 | – | –
51 | A14U A15G G37A | 0.000119 ± 2.8e-05 | 0.000224 ± 4.9e-05 | –
52 | A14U G62U U69A | < 1e-05 | – | –
53 | G32A A36C U55G C67G C68G | 0.000126 ± 3.4e-05 | 4.75e-05 ± 1.2e-05 | –
54 | U31G G38A U57C C58U G66C | < 1e-05 | – | –
55 | C16G A36G G40A G63U | < 1e-05 | < 1e-05 | –
56 | A15G A42U C71U | 7.41e-05 ± 1.8e-05 | 0.000188 ± 5.3e-05 | –
57 | A15U C50A C68U | 7.76e-05 ± 2.5e-05 | – | –
58 | C16A U54C G59U | < 1e-05 | – | –
59 | U30A U31C A39U | 0.00038 ± 0.00011 | 0.000577 ± 0.00018 | –
60 | U31G G32U G40A A48C | < 1e-05 | < 1e-05 | –
61 | A15U A33U C70U | < 1e-05 | – | –
62 | A15U G38U G40C A52U C58U C61G | < 1e-05 | – | –
63 | U30G U55G C68U | 0.000548 ± 0.00014 | 7.82e-05 ± 2.1e-05 | –
64 | U30G G40A U56G | 6.26e-05 ± 2e-05 | 0.00032 ± 7.3e-05 | –
